The values below come from patent US10117886B2, “Hyaluronidase and a low density second PEG layer on the surface of therapeutic-encapsulated nanoparticles to enhance nanoparticle diffusion and circulation” (priority 2014, dated 2018).

Counter-ions that a name gives are not always drawn. Like-named read-outs stand apart in the source and are kept apart here.

The subject of data set [1] is 4T1 tumors. The experiment in a line: Antitumor efficacy in mouse 4T1 syngeneic breast tumor model. The class given is in vivo. The following applies: 2 mg/kg DOX; (MST treated/MST control −1)×100. The procedure:
Efficacy of the nanoparticles produced in Example 2 was evaluated in a mouse 4T1 syngeneic breast tumor model, in which the host BALB/c mouse is immune-competent, and the tumor growth and metastatic spread of 4T1 cells closely mimic human breast cancer. Female BALB/c mice at 6 weeks were ordered and within a one-week stay, 50 μL of 1×10^7 4 T1 cells/mL in PBS was injected at the mammary fat pad on the right flank of the mice. Tumor size was calculated using V=0.5×width^2×length.
The nanoparticles with encapsulated DOX produced in Example 2 were used to treat tumors in a mouse 4T1 syngeneic breast tumor model BALB/c mice. The mice were randomly assigned into 4 groups and injected with saline, free DOX in saline, DOX-PLGA-PEG-NPs and DOX-PLGA-PEG-PH20-NPs (PH20 activity of DOX-PLGA-PEG-PH20-NPs is 500 U/mouse) at 2 mg/kg mice of DOX at 9, 11, 14, 17, 20 days after inoculation of 4T1 cells in the mice. The tumors reached a size of 150-250 mm^3 at day 9 before treatment. Tumor sizes were monitored throughout the whole study (FIG. 14A). The survival rate was studied based on the number of mice in each group that survived over time. MST (day) was defined as the time at which half of the mice had died.
The percentage ILS (%) was calculated using the following equation: ILS (%)=[(MST of treated group/MST of control group) −1]*100. […]

In data set [2] the test system is pericellular HA matrix of 4T1 cells. The experiment in a line: Degradation of pericellular HA of 4T1 cells (HA staining, RBC exclusion assay). In kind it is cell-based, mouse. The method, then:
The nanoparticles produced in Example 2 were tested on tumor cell line 4T1, which synthesizes HA and forms a layer of HA matrix around the cells. 4T1 cells were maintained in a RPMI-1640 medium (ATCC) containing 10% fetal bovine serum in 5% CO2 in an incubator at 37° C. 4T1 cells were cultured on round glass coverslips in a 12-well plate for one day to reach 70% confluency before treatment with the nanoparticles. DiD-labeled PLGA-PEG-NPs (no PH20 activity) and DiD-labeled PLGA-PEG-PH20-NPs (conjugated 10 U/mL PH20 activity) were used for this test. The amount of nanoparticles in all samples was equalized via fluorescence intensity. […]
The 4T1 cells were then washed and fixed and observed under a confocal microscope (Olympus IX81, 60×, C.A.=80 μm) with 405 nm and 635 nm lasers for DAPI and DiD respectively. […] The total fluorescence intensity of DiD was quantified via Image J and averaged by the number of cells.
RBCs were collected fresh from mice and washed three times with PBS before being resuspended in 2% formaldehyde in PBS for fixation of the RBCs overnight at room temperature. […] The areas of exclusion (no RBCs) were quantified through ImageJ. […]

The subject of data set [3] is pericellular HA layer around PC3 cells. The experiment in a line: Degradation of pericellular HA layer around PC3 cells by free PH20. In kind it is cell-based, human. The following applies: 1000 U of free PH20 for 1 h.
The conditions of data set [4]: free PH20, cited from earlier work.

In the case of `COc1cccc2c1C(=O)c1c(O)c3c(c(O)c1C2=O)C[C@@](O)(C(=O)CO)C[C@@H]3O[C@H]1C[C@H](N)[C@H](O)[C@H](C)O1` [Free DOX, Doxorubicin Hydrochloride salt], in data set [1], the “percentage increased life span ILS (%)” value amounted to 10%.

B1: free PH20: recombinant human hyaluronidase PH20 obtained from Halozyme, Inc, unconjugated (protein, UniProt P38567 36-490, looked up)
Hyaluronidase PH-20: LNFRAPPVIPNVPFLWAWNAPSEFCLGKFDEPLDMSLFSFIGSPRINATGQGVTIFYVDRLGYYPYIDSITGVTVNGGIPQKISLQDHLDKAKKDITFYMPVDNLGMAVIDWEEWRPTWARNWKPKDVYKNRSIELVQQQNVQLSLTEATEKAKQEFEKAGKDFLVETIKLGKLLRPNHLWGYYLFPDCYNHHYKKPGYNGSCFNVEIKRNDDLSWLWNESTALYPSIYLNTQQSPVAATLYVRNRVREAIRVSKIPDAKSPLPVFAYTRIVFTDQVLKFLSQDELVYTFGETVALGASGIVIWGTLSIMRSMKSCLLLDNYMETILNPYIINVTLAAKMCSQVLCQEQGVCIRKNWNSSDYLHLNPDNFAIQLEKGGKFTVRGKPTLEDLEQFSEKFYCSCYSTLSCKEKADVKDTDAVDVCIADGVCIDAFLKPPMETEEPQIFYNASPSTLS
Regarding B1, the “amount of HA around 4T1 cells, RBC exclusion” value in data set [2] (1000 U/mL of PH20, 2 h, 37° C.) was “reduced to a low level that could no longer block RBCs”. Besides, the “degradation of pericellular HA layer around 4T1 cells” value in data set [2] (3000 U of free PH20 for 1 h) is listed as “sufficient to degrade the pericellular HA layer around 4T1 cells”. In addition, the “degradation of pericellular HA layer” value in data set [3] was “sufficient to degrade the pericellular HA layer around PC3 cells”. Besides, the circulation half-life entry in data set [4] is recorded as “less than 3 min”; in data set [4] (listed as PH20), 3 min.
